Experimental data reported in PMC10653388.

Target: endogenous S. cerevisiae TREX complex (S. cerevisiae) (UniProt P17629)
Assay: negative-stain EM

stoichiometry N: 2
Substance: endogenous S. cerevisiae TREX complex, P17629;P53552;P33441;O13539;P53851;Q07478;Q12159;P25555;P38922
